The values that follow come from patent US20080199467A1 (TRANSTECH PHARMA, published 2008).

This assay has as its target T1, BSA (UniProt P02769 25-607).
T1 construct: Negative control coating; also called BSA coating alone; BSA+wash
The experiment in a line: ELISA, plate coated with BSA only, dilutions of fusion protein, anti-human IgG1 immunodetection complex, A405. The method, then:
Known RAGE ligands were coated onto the surface of Maxisorb plates at a concentration of 5 micrograms per well. Plates were incubated at 4° C. overnight. Following ligand incubation, plates were aspirated and a blocking buffer of 1% BSA in 50 mM imidizole buffer (pH 7.2) was added to the plates for 1 hour at room temperature. The plates were then aspirated and/or washed with wash buffer (20 mM Imidizole, 150 mM NaCl, 0.05% Tween-20, 5 mM CaCl₂ and 5 mM MgCl₂, pH 7.2). […] The RAGE fusion protein was added at increasing dilutions of the initial sample. The RAGE fusion protein was allowed to incubate with the immobilized ligand at 37° C. for one hour after which the plate was washed and assayed for binding of the RAGE fusion protein. Binding was detected by the addition of an immunodetection complex containing a monoclonal mouse anti-human IgG1 diluted 1:11,000 to a final assay concentration (FAC) of 21 ng/100 μL, a biotinylated goat anti-mouse IgG diluted 1:500, to a FAC of […], and an avidin-linked alkaline phosphatase. […] Binding of the complex to the immobilized RAGE fusion protein was quantified by measuring conversion of PNPP to para-nitrophenol (PNP) which was measured spectrophotometrically at 405 nm.
A general note: An ELISA detects its analyte on a solid surface through an enzyme-linked reagent.

T1 sequence (P02769 25-607 limits assumed): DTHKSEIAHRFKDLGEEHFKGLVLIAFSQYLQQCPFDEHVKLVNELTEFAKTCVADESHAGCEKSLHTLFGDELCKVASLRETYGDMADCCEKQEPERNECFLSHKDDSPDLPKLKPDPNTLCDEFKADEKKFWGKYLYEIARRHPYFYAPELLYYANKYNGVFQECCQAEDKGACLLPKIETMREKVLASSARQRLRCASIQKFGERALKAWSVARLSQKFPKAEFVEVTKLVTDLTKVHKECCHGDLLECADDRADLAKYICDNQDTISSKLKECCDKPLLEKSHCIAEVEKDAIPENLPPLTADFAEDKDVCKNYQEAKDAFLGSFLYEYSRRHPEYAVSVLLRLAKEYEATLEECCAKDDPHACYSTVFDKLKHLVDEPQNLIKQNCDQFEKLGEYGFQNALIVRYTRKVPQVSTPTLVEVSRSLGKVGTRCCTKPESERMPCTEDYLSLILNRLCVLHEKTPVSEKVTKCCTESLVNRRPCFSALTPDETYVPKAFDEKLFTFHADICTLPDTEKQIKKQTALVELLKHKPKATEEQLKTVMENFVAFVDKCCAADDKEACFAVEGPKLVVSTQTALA

B1: RAGE fusion protein TTP-4000 (Fc fusion)
chain: QNITARIGEPLVLKCKGAPKKPPQRLEWKLNTGRTEAWKVLSPQGGGPWDSVARVLPNGSLFLPAVGIQDEGIFRCQAMNRNGKETKSNYRVRVYQIPGKPEIVDSASELTAGVPNKVGTCVSEGSYPAGTLSWHLDGKPLVPNEKGVSVKEQTRRHPETGLFTLQSELMVTPARGGDPRPTFSCSFSPGLPRHRALRTAPIQPRVWEPVPLEEVQLVVEPEGGAVAPPSVFLFPPKPKDTLMISRTPEVTCVVVDVSHEDPEVKFNWYVDGVEVHNAKTKPREEQYNSTYRVVSVLTVLHQDWLNGKEYKCKVSNKALPAPIEKTISKAKGQPREPQVYTLPPSRDELTKNQVSLTCLVKGFYPSDIAVEWESNGQPENNYKTTPPVLDSDGSFFLYSKLTVDKSRWQQGNVFSCSVMHEALHNHYTQKSLSLSPGK
modifications: N-terminal residue glutamine (Q) or pyroglutamic acid (pE) or a mixture thereof; glycosylation sites at N2 and N288 (numbering of the processed protein); C-terminal residue may be cleaved off
notes: The end of the range (461) is derived from the coding length 1-1386 and from residues P459 and G460 near the terminal codon; also called TT4; four domain fusion protein
As to B1, the binding result is “no binding”.

B2: RAGE fusion protein TTP-3000 (Fc fusion)
chain: QNITARIGEPLVLKCKGAPKKPPQRLEWKLNTGRTEAWKVLSPQGGGPWDSVARVLPNGSLFLPAVGIQDEGIFRCQAMNRNGKETKSNYRVRVYQIPGKPEIVDSASELTAGPSVFLFPPKPKDTLMISRTPEVTCVVVDVSHEDPEVKFNWYVDGVEVHNAKTKPREEQYNSTYRVVSVLTVLHQDWLNGKEYKCKVSNKALPAPIEKTISKAKGQPREPQVYTLPPSRDELTKNQVSLTCLVKGFYPSDIAVEWESNGQPENNYKTTPPVLDSDGSFFLYSKLTVDKSRWQQGNVFSCSVMHEALHNHYTQKSLSLSPGK
modifications: N-terminal glutamine may be cyclized to pyroglutamic acid (SEQ ID NO: 19)
notes: The range 24-346 is derived from this and from the coding length 1-1041; No characterization of the expressed TTP-3000 is reported; also called TT3; three domain fusion protein
Turning to B2, the binding result is on record as “no binding”.
